From US20140227270A1

Target: Human CXCR7 (human) (UniProt P25106)
Assay: competition FACS, 4 nM biotinylated SDF-1 on HEK-hCXCR7 cells

Human CXCR7 (human), sequence (P25106 whole entry): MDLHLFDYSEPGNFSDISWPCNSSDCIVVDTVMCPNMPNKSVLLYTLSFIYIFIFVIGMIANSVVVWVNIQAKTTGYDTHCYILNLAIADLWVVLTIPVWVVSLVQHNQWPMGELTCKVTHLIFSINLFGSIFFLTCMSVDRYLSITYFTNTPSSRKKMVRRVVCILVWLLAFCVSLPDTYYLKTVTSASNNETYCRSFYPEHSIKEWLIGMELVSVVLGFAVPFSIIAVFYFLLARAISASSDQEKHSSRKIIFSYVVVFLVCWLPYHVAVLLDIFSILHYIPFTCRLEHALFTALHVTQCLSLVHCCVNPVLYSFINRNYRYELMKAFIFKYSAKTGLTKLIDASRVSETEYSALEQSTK

- % competition relative to unlabelled SDF-1: > 95%
Substance: Mab 8F11 (Biolegend) (antibody)
